Numbering of substitutions follows the chain as printed.
B1: Clone 145 (designed binder)
chain: MIPGGLSEAKPATPEIQEIVDKVKPQLEEKTGETYGKLEAVQYKTQVVYKNVGPWVNGTNYYIKVRAGDNKYMHLKVFKSLYRTNRGHEREDLVLTGYQVDKNKDDELTGF
notes: His-tagged
B2: Clone 146 (designed binder)
chain: MIPGGLSEAKPATPEIQEIVDKVKPQLEEKTGETYGKLEAVQYKTQVVSKRSAWHWTGTNYYIKVRAGDNKYMHLKVFKSLFWNAPDDRQEDLVLTGYQVDKNKDDELTGF
notes: His-tagged
B3: Clone 147 (designed binder)
chain: MIPGGLSEAKPATPEIQEIVDKVKPQLEEKTGETYGKLEAVQYKTQVVVHITVEWEGTNYYIKVRAGDNKYMHLKVFKSLIYQRHTQSREDLVLTGYQVDKNKDDELTGF
notes: His-tagged
B4: Clone 148 (designed binder)
chain: MIPGGLSEAKPATPEIQEIVDKVKPQLEEKTGETYGKLEAVQYKTQVVRDYDPFPYTGTNYYIKVRAGDNKYMHLKVFKSLWRGPGPYAIEDLVLTGYQVDKNKDDELTGF
notes: His-tagged
B5: Clone 150 (designed binder)
chain: MIPGGLSEAKPATPEIQEIVDKVKPQLEEKTGETYGKLEAVQYKTQVVREVGLWRFQGTNYYIKVRAGDNKYMHLKVFKSLYIGYAGDAQEDLVLTGYQVDKNKDDELTGF
notes: His-tagged
B6: Clone 151 (designed binder)
chain: MIPGGLSEAKPATPEIQEIVDKVKPQLEEKTGETYGKLEAVQYKTQVVWEEVNWRNWGTNYYIKVRAGDNKYMHLKVFKSLVPIHDHLRNEDLVLTGYQVDKNKDDELTGF
notes: His-tagged
B7: Clone 152 (designed binder)
chain: MIPGGLSEAKPATPEIQEIVDKVKPQLEEKTGETYGKLEAVQYKTQVVRAQLRPWVAGTNYYIKVRAGDNKYMHLKVFKSLGWNEEARPPEDLVLTGYQVDKNKDDELTGF
notes: His-tagged
B8: Clone 153 (designed binder)
chain: MIPGGLSEAKPATPEIQEIVDKVKPQLEEKTGETYGKLEAVQYKTQVVYPWSWNGHYGTNYYIKVRAGDNKYMHLKVFKSLIKYPFARAEEDLVLTGYQVDKNKDDELTGF
notes: His-tagged
B9: Clone 223 (designed binder)
chain: MIPGGLSEAKPATPEIQEIVDKVKPQLEEKTGETYGKLEAVQYKTQVVFPWDQENYYGTNYYIKVRAGDNKYMHLKVFKSLIKEPFIKNVEDLVLTGYQVDKNKDDELTGF
notes: His-tagged
B10: Clone 155 (designed binder)
chain: MIPGGLSEAKPATPEIQEIVDKVKPQLEEKTGETYGKLEAVQYKTQVVWRTGQKWQVGTNYYIKVRAGDNKYMHLKVFKSLAGHYEVHIGEDLVLTGYQVDKNKDDELTGF
notes: His-tagged
B11: Clone 156 (designed binder)
chain: MIPGGLSEAKPATPEIQEIVDKVKPQLEEKTGETYGKLEAVQYKTQVVIQQLYKQTWGTNYYIKVRAGDNKYMHLKVFKSLDYQHWPYDFEDLVLTGYQVDKNKDDELTGF
notes: His-tagged
B12: Clone 157 (designed binder)
chain: MIPGGLSEAKPATPEIQEIVDKVKPQLEEKTGETYGKLEAVQYKTQVVIYYPIWDFHGTNYYIKVRAGDNKYMHLKVFKSLFWGDLKTEDLVLTGYQVDKNKDDELTGF
notes: His-tagged
B13: Clone 158 (designed binder)
chain: MIPGGLSEAKPATPEIQEIVDKVKPQLEEKTGETYGKLEAVQYKTQVVDNVANIVPHGTNYYIKVRAGDNKYMHLKVFKSLGWNYEHKWPEDLVLTGYQVDKNKDDELTGF
notes: His-tagged
B14: Clone 159 (designed binder)
chain: MIPGGLSEAKPATPEIQEIVDKVKPQLEEKTGETYGKLEAVQYKTQVVHVHWAWNYLGTNYYIKVRAGDNKYMHLKVFKSLRNFYTFPHEEDLVLTGYQVDKNKDDELTGF
notes: His-tagged
B15: Clone 160 (designed binder)
chain: MIPGGLSEAKPATPEIQEIVDKVKPQLEEKTGETYGKLEAVQYKTQVVGPWYFGSAWGTNYYIKVRAGDNKYMHLKVFKSLWENFHKLEKEDLVLTGYQVDKNKDDELTGF
notes: His-tagged
B16: Clone 163 (designed binder)
chain: MIPGGLSEAKPATPEIQEIVDKVKPQLEEKTGETYGKLEAVQYKTQVVISASEIRWYGTNYYIKVRAGDNKYMHLKVFKSLKAFANDYYKEDLVLTGYQVDKNKDDELTGF
notes: His-tagged
B17: Clone 68 (designed binder)
chain: MIPGGLSEAKPATPEIQEIVDKVKPQLEEKTGETYGKLEAVQYKTQVVRVQGLWNFQGTNYYIKVRAGDNKYMHLKVFKSLGHHGDHEKWEDLVLTGYQVDKNKDDELTGF
notes: His-tagged
B18: Clone 164 (designed binder)
chain: B17 chain with V50I, Q51W, L53F, N55A, H84E, G85S, D86G, H87Q, E88N, K89L
notes: His-tagged
B19: Clone 165 (designed binder)
chain: MIPGGLSEAKPATPEIQEIVDKVKPQLEEKTGETYGKLEAVQYKTQVVNEAESSRFLGTNYYIKVRAGDNKYMHLKVFKSLHDFTLKWKFEDLVLTGYQVDKNKDDELTGF
notes: His-tagged
B20: Clone 166 (designed binder)
chain: MIPGGLSEAKPATPEIQEIVDKVKPQLEEKTGETYGKLEAVQYKTQVVVAGLKWHWEGTNYYIKVRAGDNKYMHLKVFKSLIYASQYDYREDLVLTGYQVDKNKDDELTGF
notes: His-tagged
B21: Clone 167 (designed binder)
chain: MIPGGLSEAKPATPEIQEIVDKVKPQLEEKTGETYGKLEAVQYKTQVVYRNKQWYNEGTNYYIKVRAGDNKYMHLKVFKSLKIGYLEFVLEDLVLTGYQVDKNKDDELTGF
notes: His-tagged
B22: Clone 208 (designed binder)
chain: B21 chain with Y49Q, R50W, N51K, Q53T, W54Q, N56F, E57F, K82R, V89E, L90I
notes: His-tagged
B23: Clone 169 (designed binder)
chain: MIPGGLSEAKPATPEIQEIVDKVKPQLEEKTGETYGKLEAVQYKTQVVYANIGPWLYGTNYYIKVRAGDNKYMHLKVFKSLFKHRQQLHYTEDLVLTGYQVDKNKDDELTGF
notes: His-tagged
B24: Clone 17 (designed binder)
chain: MIPGGLSEAKPATPEIQEIVDKVKPQLEEKTGETYGKLEAVQYKTQVVIVYTIWNYVGTNYYIKVRAGDNKYMHLKVFKSLTPQTETEHEEDLVLTGYQVDKNKDDELTGF
notes: His-tagged
B25: Clone 170 (designed binder)
chain: MIPGGLSEAKPATPEIQEIVDKVKPQLEEKTGETYGKLEAVQYKTQVVHQFQEIKWFGTNYYIKVRAGDNKYMHLKVFKSLFHRTPGSTTEDLVLTGYQVDKNKDDELTGF
notes: His-tagged
B26: Clone 171 (designed binder)
chain: MIPGGLSEAKPATPEIQEIVDKVKPQLEEKTGETYGKLEAVQYKTQVVIDHQNHPTEGTNYYIKVRAGDNKYMHLKVFKSLWPWLHSTEQEDLVLTGYQVDKNKDDELTGF
notes: His-tagged
B27: Clone 172 (designed binder)
chain: MIPGGLSEAKPATPEIQEIVDKVKPQLEEKTGETYGKLEAVQYKTQVVSVFQYTYKFGTNYYIKVRAGDNKYMHLKVFKSLNNKPPHNDLEDLVLTGYQVDKNKDDELTGF
notes: His-tagged
B28: Clone 173 (designed binder)
chain: MIPGGLSEAKPATPEIQEIVDKVKPQLEEKTGETYGKLEAVQYKTQVVDWPSHAKFWGTNYYIKVRAGDNKYMHLKVFKSLFLPDKDDPFEDLVLTGYQVDKNKDDELTGF
notes: His-tagged
B29: Clone 177 (designed binder)
chain: MIPGGLSEAKPATPEIQEIVDKVKPQLEEKTGETYGKLEAVQYKTQVVISEDSWWPHGTNYYIKVRAGDNKYMHLKVFKSLNWFHQPWQREDLVLTGYQVDKNKDDELTGF
notes: His-tagged
B30: Clone 192 (designed binder)
chain: MIPGGLSEAKPATPEIQEIVDKVKPQLEEKTGETYGKLEAVQYKTQVVTENNSWWPIGTNYYIKVRAGDNKYMHLKVFKSLNWFSDEAPYEDLVLTGYQVDKNKDDELTGF
notes: His-tagged
B31: Clone 178 (designed binder)
chain: MIPGGLSEAKPATPEIQEIVDKVKPQLEEKTGETYGKLEAVQYKTQVVDHLPHAKYWGTNYYIKVRAGDNKYMHLKVFKSLWYQPRWKVEEDLVLTGYQVDKNKDDELTGF
notes: His-tagged
B32: Clone 18 (designed binder)
chain: MIPGGLSEAKPATPEIQEIVDKVKPQLEEKTGETYGKLEAVQYKTQVVEAHQDLHFWGTNYYIKVRAGDNKYMHLKVFKSLLTEHNKKHQERHLDHEDLVLTGYQVDKNKDDELTGF
notes: His-tagged
B33: Clone 180 (designed binder)
chain: MIPGGLSEAKPATPEIQEIVDKVKPQLEEKTGETYGKLEAVQYKTQVVLQGSRLPIEGTNYYIKVRAGDNKYMHLKVFKSLGWHNVTLPPEDLVLTGYQVDKNKDDELTGF
notes: His-tagged
B34: Clone 49 (designed binder)
chain: MIPGGLSEAKPATPEIQEIVDKVKPQLEEKTGETYGKLEAVQYKTQVVKYYAIFDYKGTNYYIKVRAGDNKYMHLKVFKSLFKEKVRNSIEDLVLTGYQVDKNKDDELTGF
notes: His-tagged
B35: Clone 81 (designed binder)
chain: MIPGGLSEAKPATPEIQEIVDKVKPQLEEKTGETYGKLEAVQYKTQVVKAYVIWSYKGTNYYIKVRAGDNKYMHLKVFKSLFYGEPRGKGEDLVLTGYQVDKNKDDELTGF
notes: His-tagged

target: T1, human PD-L1-Fc (R&D Systems) (human, UniProt Q9NZQ7 19-239); assay: soluble Affimer ELISA
T1 construct: Bought from R&D Systems; Biotinylated in-house for the phage selection; also called huPD-L1-Fc; human PD-L1-Fc antigen; not shown: Fc part of the bought fusion
T1 sequence (Q9NZQ7 19-239 limits assumed): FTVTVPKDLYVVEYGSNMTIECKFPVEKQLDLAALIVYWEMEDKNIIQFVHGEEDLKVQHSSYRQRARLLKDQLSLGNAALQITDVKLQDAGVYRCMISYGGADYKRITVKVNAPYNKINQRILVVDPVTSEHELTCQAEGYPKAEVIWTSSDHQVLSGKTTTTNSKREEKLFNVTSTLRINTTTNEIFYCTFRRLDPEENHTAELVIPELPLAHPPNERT

| Binder | binding result |
| --- | --- |
| B1 | binds |
| B2 | binds |
| B3 | binds |
| B4 | binds |
| B5 | binds |
| B6 | binds |
| B7 | binds |
| B8 | binds |
| B9 | binds |
| B10 | binds |
| B11 | binds |
| B12 | binds |
| B13 | binds |
| B14 | binds |
| B15 | binds |
| B16 | binds |
| B17 | binds |
| B18 | binds |

| Binder | binding result |
| --- | --- |
| B19 | binds |
| B20 | binds |
| B21 | binds |
| B22 | binds |
| B23 | binds |
| B24 | binds |
| B25 | binds |
| B26 | binds |
| B27 | binds |
| B28 | binds |
| B29 | binds |
| B30 | binds |
| B31 | binds |
| B32 | binds |
| B33 | binds |
| B34 | binds |
| B35 | binds |

From patent US20250243277A1 (AVACTA LIFE SCIENCES, published 2025)
